# T1: 4H335-AA
# T1 chain: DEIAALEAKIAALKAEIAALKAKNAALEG
# T2: 4H342-AA
# T2 chain: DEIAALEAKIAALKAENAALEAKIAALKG
# T3: 4H3427-AA
# T3 chain: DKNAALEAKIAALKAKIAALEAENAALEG
# T4: 4H3627-AA
# T4 chain: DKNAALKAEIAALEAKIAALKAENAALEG
# T5: 4H3655-AA
# T5 chain: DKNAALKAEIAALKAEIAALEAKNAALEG
# T6: 4H3844-AA
# T6 chain: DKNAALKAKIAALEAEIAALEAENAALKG
# T7: 4H3921-AA
# T7 chain: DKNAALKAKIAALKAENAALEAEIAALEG
# T8: 4H429-AA
# T8 chain: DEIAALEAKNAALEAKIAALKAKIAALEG
# T9: 4H454-AA
# T9 chain: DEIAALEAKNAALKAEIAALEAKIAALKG
# T10: 4H566-AA
# T10 chain: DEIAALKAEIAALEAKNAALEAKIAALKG
# T11: 4H605-AA
# T11 chain: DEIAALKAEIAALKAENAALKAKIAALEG
# T12: 4H678-AA
# T12 chain: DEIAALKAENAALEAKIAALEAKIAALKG
# T13: 4H717-AA
# T13 chain: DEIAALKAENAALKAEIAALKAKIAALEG
# T14: 4H780-AA
# T14 chain: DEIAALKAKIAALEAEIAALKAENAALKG
# T15: 4H794-AA
# T15 chain: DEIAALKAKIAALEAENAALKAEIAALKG
# T16: 4H881-AA
# T16 chain: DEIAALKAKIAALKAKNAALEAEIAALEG
# T17: 4H906-AA
# T17 chain: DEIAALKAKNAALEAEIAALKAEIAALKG
# T18: 4H993-AA
# T18 chain: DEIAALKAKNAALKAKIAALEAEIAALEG
# T19: 4H850-bA
# T19 chain: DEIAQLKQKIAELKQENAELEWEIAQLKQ
# T20: 4H906-bA
# T20 chain: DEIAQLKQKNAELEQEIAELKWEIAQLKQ
# T21: 4H432-AA
# T21 chain: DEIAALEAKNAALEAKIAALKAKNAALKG
# T22: 4H446-AA
# T22 chain: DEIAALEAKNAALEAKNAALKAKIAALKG
# T23: 4H63-AA
# T23 chain: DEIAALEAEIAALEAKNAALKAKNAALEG
# T24: 4H908-bN
# T24 chain: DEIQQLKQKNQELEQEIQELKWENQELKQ
# T25: 4H918-bN
# T25 chain: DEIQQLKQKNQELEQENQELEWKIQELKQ
# T26: 4H953-bN
# T26 chain: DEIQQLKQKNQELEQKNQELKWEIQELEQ
# T27: 4H967-bN
# T27 chain: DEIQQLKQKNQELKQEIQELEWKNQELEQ
# T28: APC9806-AA
# T28 chain: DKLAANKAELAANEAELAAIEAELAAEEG
# B1: 4H335-AA (peptide)
# chain: DEIAALEAKIAALKAEIAALKAKNAALEG
# B2: 4H850-bA (peptide)
# chain: DEIAQLKQKIAELKQENAELEWEIAQLKQ
# B3: 4H432-AA (peptide)
# chain: DEIAALEAKNAALEAKIAALKAKNAALKG
# B4: 4H908-bN (peptide)
# chain: DEIQQLKQKNQELEQEIQELKWENQELKQ
# B5: APC9806-AA (peptide)
# chain: DKLAANKAELAANEAELAAIEAELAAEEG
# Columns and labels:
# [1] = target: T1, 4H335-AA; experiment: two-hybrid library CCmax;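 also: natural log of median RNA to DNA barcode read ratio; higher means stronger binding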
# [2] = target: T2, 4H342-AA; experiment: two-hybrid library CCmax; conditions: mean of both orientations;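 also: natural log of median RNA to DNA barcode read ratio; higher means stronger binding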
# [3] = target: T3, 4H3427-AA; experiment: two-hybrid library CCmax; conditions: mean of both orientations;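 also: natural log of median RNA to DNA barcode read ratio; higher means stronger binding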
# [4] = target: T4, 4H3627-AA; experiment: two-hybrid library CCmax; conditions: mean of both orientations;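 also: natural log of median RNA to DNA barcode read ratio; higher means stronger binding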
# [5] = target: T5, 4H3655-AA; experiment: two-hybrid library CCmax; conditions: mean of both orientations;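 also: natural log of median RNA to DNA barcode read ratio; higher means stronger binding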
# [6] = target: T6, 4H3844-AA; experiment: two-hybrid library CCmax; conditions: mean of both orientations;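 also: natural log of median RNA to DNA barcode read ratio; higher means stronger binding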
# [7] = target: T7, 4H3921-AA; experiment: two-hybrid library CCmax; conditions: mean of both orientations
# [8] = target: T8, 4H429-AA; experiment: two-hybrid library CCmax; conditions: mean of both orientations
# [9] = target: T9, 4H454-AA; experiment: two-hybrid library CCmax; conditions: mean of both orientations
# [10] = target: T10, 4H566-AA; experiment: two-hybrid library CCmax; conditions: mean of both orientations
# [11] = target: T11, 4H605-AA; experiment: two-hybrid library CCmax; conditions: mean of both orientations
# [12] = target: T12, 4H678-AA; experiment: two-hybrid library CCmax; conditions: mean of both orientations
# [13] = target: T13, 4H717-AA; experiment: two-hybrid library CCmax; conditions: mean of both orientations
# [14] = target: T14, 4H780-AA; experiment: two-hybrid library CCmax; conditions: mean of both orientations
# [15] = target: T15, 4H794-AA; experiment: two-hybrid library CCmax; conditions: mean of both orientations
# [16] = target: T16, 4H881-AA; experiment: two-hybrid library CCmax; conditions: mean of both orientations
# [17] = target: T17, 4H906-AA; experiment: two-hybrid library CCmax; conditions: mean of both orientations
# [18] = target: T18, 4H993-AA; experiment: two-hybrid library CCmax; conditions: mean of both orientations
# [19] = target: T19, 4H850-bA; experiment: two-hybrid library CCNG1
# [20] = target: T20, 4H906-bA; experiment: two-hybrid library CCNG1
# [21] = target: T21, 4H432-AA; experiment: two-hybrid library CCmax
# [22] = target: T22, 4H446-AA; experiment: two-hybrid library CCmax; conditions: mean of both orientations
# [23] = target: T23, 4H63-AA; experiment: two-hybrid library CCmax; conditions: mean of both orientations
# [24] = target: T24, 4H908-bN; experiment: two-hybrid library CCNG1
# [25] = target: T25, 4H918-bN; experiment: two-hybrid library CCNG1
# [26] = target: T26, 4H953-bN; experiment: two-hybrid library CCNG1
# [27] = target: T27, 4H967-bN; experiment: two-hybrid library CCNG1
# [28] = target: T28, APC9806-AA; experiment: two-hybrid library CCmax
binder,measurement,setting,value
B1,interaction score,[1],1.81
same,interaction score,[2],-0.154
same,interaction score,[3],-0.982
same,interaction score,[4],1.23
same,interaction score,[5],0.662
same,interaction score,[6],1.22
same,interaction score,[7],-0.804
same,interaction score,[8],-0.695
same,interaction score,[9],0.512
same,interaction score,[10],-1.09
same,interaction score,[11],-1.51
same,interaction score,[12],-1.15
same,interaction score,[13],-1.46
same,interaction score,[14],-0.326
same,interaction score,[15],-1.3
same,interaction score,[16],-1.54
same,interaction score,[17],-1.22
same,interaction score,[18],-0.48
B2,interaction score,[19],0.428
same,interaction score,[20],-1.27
B3,interaction score,[21],-1.51
same,interaction score,[22],-1.7
same,interaction score,[23],-1.92
B4,interaction score,[24],-0.618
same,interaction score,[25],-0.988
same,interaction score,[26],-0.77
same,interaction score,[27],-0.23
B5,interaction score,[28],-2.12
